Measured values: the DeepSol protein solubility set

Assay: soluble on expression in E. coli; label from the status in PepcDB or PDB records

Sequence	soluble on expression in E. coli
MSHIFDASVLAPHIPSNLPDNFKVRPLAKDDFSKGYVDLLSQLTSVGNLDQEAFEKRFEAMRTSVPNYHIVVIEDSNSQKVVASASLVVEMKFIHGAGSRGRVEDVVVDTEMRRQKLGAVLLKTLVSLGKSLGVYKISLECVPELLPFYSQFGFQDDCNFMTQRF	soluble
MTKSKSKKEDLIPEIGDFTKFFKSRSKFSDQITDVISNVYEWSTSLEPSEDNLPLPFVSKNEEVVWSYLKHQNKQLDGINKKYKGFLSELIGKSHIRVAAKIQDSEGSEDGSDGSDGGSEEELDDDEEELEDEELEDEMIDDEDEADLFNLSESDLKTLDADLKKMEEEEAGEEKEEVEKATEQPKKFKKSIVDDQFFNLDEMHDFLQKTERAGGKKAAQDEEMMFEDEDSWDGKTDYTYEDFFGSRETVAETEKMNGEKKKIEKDKKRKAGDKADLSLDDGKNKKRVRFAMDEEPEEEEVEDEEQEDINDEEEPPEDEPVLLGADLEEPKEESAFAKRQSKMKERIAKLEEENLAPKSWELSGEVAADQRDQNTLLEKHVDFDHGAKRAPEVTEEFTDRLESLIKQRIRDKAWDDVIRVKKVEAKGAKFETEAIENQMNQKTSLAEVYEKEYQNSTGNSADGAAGATKPNEAHEAIKSKMGDLFRLIDALTHFEYKPDQAREEVKVVSNMAALRVEEVGITASTEAQLMAPEEISKKMKAIEKSKDERDATDKARERRQKKAKQRSMLEKFGEERVFGEQKAVKLAKKERKAGKEKGGGVDKIKSSNFFAKLQETVAAEKKDGAVTKKKKKIVKRLKSDKNSAAIKL	not soluble
MSLRRDHTRTAQVTHVESLTNSPGVRENWPGWASPAVVERMVKSGVAKPWSHQVRAANLAHSGSNVIIATGISSGKSLGFLMPCTAAIAEGGSVLYLAPTKALAADQERKLAELAMPGVRAAVYDGDTPMEERSWARAHANYVLTNPDMLHRSIVARHPVWAGFLRRLSYVVVDEAHHYRGVFGSHVAQIMRRLRRVCGCYGAEPRFILASATTATPAETAQQLTGLPVVAVTGDGSARASLRFALVEPELTEKTGEQGAPMRRTATAVAAELLADLVSHEVSTLVFVRSRQAAELVALAAQRALADAGRPELARRVAAYRGGYLAEDRRRLEQRLRSGELLGLATTNALELGVDVSGLDAVVMAGWPGTRASLWQQAGRAGRSGRDALAVFVARDDPLDTYLVHHPDAIFGQDVEATVLDPDNPYVLAPHLCAAAEEEGHHHHHH	not soluble
MHHHHHHSSGVDLGTENLYFQSMLAVHFDKPGGPENLYVKEVAKPSPGEGEVLLKVAASALNRADLMQRQGQYDPPPGASNILGLEASGHVAELGPGCQGHWKIGDTAMALLPGGGQAQYVTVPEGLLMPIPEGLTLTQAAAIPEAWLTAFQLLHLVGNVQAGDYVLIHAGLSGVGTAAIQLTRMAGAIPLVTAGSQKKLQMAEKLGAAAGFNYKKEDFSEATLKFTKGAGVNLILDCIGGSYWEKNVNCLALDGRWVLYGLMGGGDINGPLFSKLLFKRGSLITSLLRSRDNKYKQMLVNAFTEQILPHFSTEGPQRLLPVLDRIYPVTEIQEAHKYMEANKNIGKIVLELPQ	soluble
ARSAYSYIREAWKRPKEGQIAELMWHRMQEWRNEPAVVRIERPTRLDRARSLGYKAKQGIIVVRVAIRKGSSRRTRFNKGRRSKRMMVNRITRKKNIQRIAEERANRKFPNLRVLNSYSVGEDGRHKWHEVILIDPDHPAIKSDDQLSWISRTRHRLRTFRGLTSAGRRCRGLRGQGKGSEKVRPSLRVNGAKA	soluble
MGSDKIHHHHHHMQVLGLCRFSYLGLGGFKVMHETLEERRAYLYAPARMEDRFRQFEAVTLPSVTGQTDPDFEFLVVIGECFPDSYRARLEDLVRGVPQVRIRAYPPLRHRTAMAQALDDHRRDMDAPCLQFRLDDDDGMARDFVARYREVAADTEALWRKHPAVAVDFNTGYVFRCGKRGIEISPFQFAYSAIALGVIVAPGHREGIMHFGHHKLWTVMPTITVPGEDMMLRGHNEFNDSRAKPGAKQFSYQPLDADEEAYFKARFNVDNARVREIFSAPMP	not soluble
MGSDKIHHHHHHMCRLSLLKSSHLFKEQLLAASYSIQCVSQIAILGAPLWNALMAGANRQDQNGPANPFCRYEYLHALELSGCVGEQTGWRPMHLVVSEAGQIGENNQASAQGGDRQIDPSKVLAVMPLYLKGHSYGEYVFDWAWAQAYERHGLEYYPKLVNAIPFTPVTGSRIGFRVDLSEAQKAGLIGKIGEHLDLLTKACSASSWHSLFLLESERQPLVSKGHLQRLGTQFHWFNRDYQSFDDFLSRLTSRRRKSILKERRAITKAGLKFHFIDGAEITEDELTHFVHCYQRTYYKRSGHQGYLNAAFFSAVVKNMADKVRLLMVERPQANKLEAQAGSDARSEVGSAQEIEPIAAALYFVGGDCLYGRYWGALEEIEGLHFETCYYQGIDYAIAQRLKKFDAGAQGEHKVLRGFEPIPTYSIHEILHGDFRRAIADFIEQEARAVKIYMNELEAILPFKREGD	not soluble
MDSAFVDRAWDKWVTTGNVGSSDFEKKMKNPERKNKMLLFGDLIVGICSGPSRLLSTIAKQEGIDIYPVDLKQFIDFMRCGNLPTETFVLGSNQCKNIITSIHENWFAARCLNTSQPAGEGAIVMQTAVYVLVALYDGSIGSASQAMAAADQFASQLSRKNF	soluble
MVPHDKDKDNPSELIRGKDVAAFGLWSLPSFDEPRDEPAVAAPQVPAVAEPAPAPPAVEEVELETVKPPTLEEIEAIRQDAYNEGFATGERDGFHAGQLKARQEAEEALKERLQSLERLMTQLLEPIAEQDALIEQGMVNLVNHVARQVIQRELHMDSSHVRQVLREALKLLPMGAANIRIHVNPQDFERVKALRERHEESWRILEDDSLLPGGCRIETEHSRIDATIETRLAQAVKQLFEQQREQATHPLASDIRIDLDAPGDVDAP	not soluble
MGSDKIHHHHHHMRLNELYSGKNAFIFQGVGIKYQKFLTLLDESQRELLKEYCSIVYKKIKLDLWGYLTRSLSGEYDDKFSDWVSIYTIDCVVYNTYIEDGIKPSVLLGYSMGLITALACGKAISFEEGLELLSMSYNYPKYTSRKDEGMGLVTGMTCSDIKKIIDKNELGDYAYIASENNEYCILVSGMKNRVDKLLSIALTEGALSAKDIDSPYAFHSKYALIGIEEYEKLVSRLCVCNLKIPIISSYDQRIIVDSCELKKELVKNVWGEMKWMASVEKAININNYNFFEVSLIDSISRFSRMINSNCKFFTYKSFMKIKNVQVQN	not soluble
MGSDKIHHHHHHMMGEFEAIRPYSDAEVPAVLQRLLSDDAFLGALVRYRFPRLAGPLGWLLKPLIAHRLAREVTGIRSVATLQDKFEPYVDHTIEKATDGVTYSGVNRLKPGCAYLFIANHRDIVMDPAFVNYAVYHAGLPTPRIAIGDNLLQKSFVSDLMRLNKSFIVHRSLSGRREKLAAYQTLSAYINHSIREDRQSVWIAQAEGRAKDGDDRTDSAILKMFHMSRKDEPFAEMVRALHFIPVSISYEYDPCDLAKARELHTRASTGEYRKAPGEDDASIALGITGYKGRVHINFGAELEGEFSDAKQLAAELDRQILGNYRLFPVHYLAYEMSENRDPGLAVPTAESLFGSEELEKARKEWNRRLEQCPAEQRSWLVLQYANPVLNQYRIKQQS	not soluble
PVVLESKQRGPCAMSRLIVKNLPNGMKEERFRQLFAAFGTLTDCSLKFTKDGKFRKFGFIGFKSEEEAQKAQKHFNKSFIDTSRITVEFCKSFGDPAKPRAWSKHAQKPSQPKQPPKDSTTPEIKKDEKKKKVAGQLEKLKEDTEFQEFLSVHRRRAQAATWANDGLDAEPSKGKSKPASDYLNFDSDSGQESEEEGAGEDLEEEASLEPKAAVQKELSDMDYLKSKMVKAGSSSSSEEEESEDEAVHCDEGSEAEEEDSSATPVLQERDSRGAGQEQGMPAGKKRPPEARAETEKPANQKEPTTCHTVKLRGAPFNVTEKNVMEFLAPLKPVAIRIVRNAHGNKTGYIFVDFSNEEEVKQALKCNREYMGGRYIEVFREKNVPTTKGAPKNTTKSWQGRILGENEEEEDLAESGRLFVRNLPYTSTEEDLEKLFSKYGPLSELHYPIDSLTKKPKGFAFITFMFPEHAVKAYSEVDGQVFQGRMLHVLPSTIKKEASEDASALGSSSYKKKKEAQDKANSASSHNWNTLFMGPNAVADAIAQKYNATKSQVFDHETKGSVAVRVALGETQLVQEVRRFLIDNGVSLDSFSQAAAERSKTVILVKNLPAGTLAAELQETFGRFGSLGRVLLPEGGTTAIVEFLEPLEARKAFRHLAYSKFHHVPLYLEWAPVGVFSSAAPQKKKLQDTPSEPMEKDPAEPETVPDGETPEDENPTEEGADNSSAKMEEEEEEEEEEEESLPGCTLFIKNLNFDTTEEKLKEVFSKVGTVKSCSISKKKNKAGVLLSMGFGFVEYRKPEQAQKALKQLQGHVVDGHKLEVRISERATKPAVTLARKKQVPRKQTTSKILVRNIPFQAHSREIRELFSTFGELKTVRLPKKMTGTGTHRGFGFVDFLTKQDAKRAFNALCHSTHLYGRRLVLEWADSEVTLQALRRKTAAHFHEPPKKKRSVVLDEILEQLEGSDSDSEEQTLQL	soluble
MGSDKIHHHHHHMVLSLSSHNVIQYLQEAGLCSSEDDASDKSELPGSSKNNSDLLVTLADNRKLLVKQEHNVKNNDVAPRELFQEWLFHQLLQQFPVLGNISAIAPLVVHFDEENSILVRNYLSEYLKLATFYHNNEIFPQEIATAIGTTLAGLHRATYNRREYRDFMATAPQGEFRYGFYNPAQGVESIGPEIFGTVPTEALKFYLLYQQSESLESAIADLAYDWNPCCLTHNDLKLNNILVHSRWKKLDNCLVRLINWEACSWGDPAFDLGTLLASYLRIWLNSLVVDPTIELQESLHLALTPLESLQPSIIALIRAYLNAFPMILEYRSDFIVRVIQFAGLALIHQIQDMITCRKSFNNTDICMLQVAKSLLTMPQQGVLTIFGISESEILNPVGKVHKLPQPVKEPQLLRLYYEKTRLRGC	not soluble
MLDFAAIDFETANAERTSVCSVGIIVVRGGQIVHRYYSLIRPEPDYYNYHNTRVHGLTAADTESARIFPDVWAEVEPLIAGLPLVAHNKPFDEGCLKAVFRMYRMDYPDYPFFCTLQAARRQLRHLSDHRLPTVAQCCGYTLAQHHQALADAEACAAIALKLL	not soluble
KPAKPAAKSIVTLDVKPWDDETNLEEMVANVKAIEMEGLTWGAHQFIPIGFGIKKLQINCVVEDDKVSLDDLQQSIEEDEDHVQSTDIAAMQAL	soluble
MKTALESLRNASALYNEKLVKLMKSFGMTIAEHRLLLLIESGLDTQEKISLATKLDTSTLSRQLKSAVRKELLDKLATGRDKRQLIYSVTEKGQSDLKGIAAELARIDANVFSDWNQNDRALLDQLLDKLEKSI	not soluble
AIAGNTTSERVSGERHGAKAARAEGGGHGPGKEHKIMVGSTDDPSVFSLPDSKLPGDKEFVPWQQDLDDSVKPAQQARPTVIRWSEGGKEVFISGSFNNWSTKIPLIKSHNDFVAILDLPEGEHQYKFFVDGQWVHDPSEPVVTSQLGTINNLIHVKKSDFEVFDALKLDSMESSETSCRDLSSSPPGPYGQEMYVFRSEERFKSPPILPPHLLQVILNKDTNISCDPALLPEPNHVMLNHLYALSIKDSVMVLSATHRYKKKYVTTLLYKPI	soluble
MNYKITTLVENCVYGRKLQAEHGLSLYIETPENRLLFDTGASDLFIRNARLLNIDLQKVDYLVLSHGHSDHTGGLRHFLELNAEATVVCKREVFFSKFKDERENGMKYTRSLDLSRFRFIDELTELVPGVFLFPSVDIIDPKDTHFERFWIQKEDGSRVPDTFPDELAMVLVEPEGLSILSACSHRGITNILRTVRTAFPELPCNLLLGGFHIHNAEESKYQVIADYLHEYLPQKIGVCHCTGVDKYAFFYKDFGDRIFYNHTGKLIQTDSLL	not soluble
